Each block holds one substance with its values, some of them ahead of it.
Assays:
[1] = target: HLA-DR1 (HLA-DRα*0101 and HLA-DRβ1*0101) (human); test: ELISA; competitive peptide-binding assay: test peptide 10^-4-10^-10 M against 4.5 nM biotinylated CLIP 99-117 marker peptide for 0.1 μg refolded HLA-DR1-CLIP 105-117; 20 mM MES, 140 mM NaCl, 0.02% NaN3, pH 5, overnight at 37 °C; HLA-DR1 captured on anti-DR L243, bound marker detected with streptavidin-HRP; % competitive inhibition, four-parameter fit
[2] = target: HLA-DR1 (HLA-DRα*0101 and HLA-DRβ1*0101) (human); test: ELISA
[3] = target: HLA-DR1 (HLA-DRα*0101 and HLA-DRβ1*0101); test: in vitro competition assay (HLA-DR1 peptide binding)

IC50 [1]: 535 nM
Substance: 5T4_(11–30) peptide (from UniProt Q13641 11-30)

Substance: IAV hemagglutinin_(306–319) epitope (peptide)
IC50 [2]: 13 nM

IC50 [3]: 149 nM
Substance: 5T4_(111–130) 20-mer peptide E3A
